The source of these data is US20090092595A1, “Suppression of sPLA2-integrin binding for treating an inflammatory condition” (REGENTS OF THE UNIVERSITY OF CALIFORNIA, priority 2007, published 2009).

Experiment [1] has as its target T1, recombinant soluble integrin αvβ3 (UniProt P06756 31-992; P05106 27-718).
T1 construct: Soluble heterodimer; whole entries named only; also called soluble αvβ3; soluble recombinant αvβ3
The experiment in a line: SPR (Biacore), soluble αvβ3 amine-coupled to CM5 chip, sPLA2-IIA injected, 1 mM Mn2+, 1:1 binding with drifting baseline model. Background: In SPR one partner is held on a chip, and binding of the other changes the refractive index at the surface.
Experimental: The mutant proteins were tested for binding to soluble integrin αvβ3.
Surface plasmon resonance study Recombinant soluble integrin αvβ3 was immobilized to Biacore Sensor chip CM5 (Biacore, Piscataway, N.J.) by the standard amine coupling method. […] Then the sensor chip was washed with the running buffer alone at the same flow rate for another 5 min (the dissociation phase). Two consecutive one-minute injections of 0.5 M, pH 8 EDTA solution at the same flow rate were used to regenerate the chip for another cycle of injection. The resonance unit elicited from the reference flow cell was subtracted from the resonance unit elicited from the integrin flow cell to eliminate the non-specific protein-flow cell interaction and the bulk refractive index effect. The recorded binding curves were fitted with the “1:1 binding with drifting baseline model” by using the Biaevaluation Version 4.1.

The target in experiment [2] is T2, integrin α4β1 on K562 cells expressing recombinant α4β1 (α4-K562) and on U937 human monocytic lymphoma cells (human, UniProt P13612 34-1032; P05556 21-798).
T2 construct: whole, on cells; Recombinant α4 in K562 cells; endogenous α4β1 in U937 cells; Treated as one molecule (human α4β1 on cells); also called α4-K562 cells; U937 cells (α4β1+)
T2 sequence (P13612 34-1032, chain 1 of 2): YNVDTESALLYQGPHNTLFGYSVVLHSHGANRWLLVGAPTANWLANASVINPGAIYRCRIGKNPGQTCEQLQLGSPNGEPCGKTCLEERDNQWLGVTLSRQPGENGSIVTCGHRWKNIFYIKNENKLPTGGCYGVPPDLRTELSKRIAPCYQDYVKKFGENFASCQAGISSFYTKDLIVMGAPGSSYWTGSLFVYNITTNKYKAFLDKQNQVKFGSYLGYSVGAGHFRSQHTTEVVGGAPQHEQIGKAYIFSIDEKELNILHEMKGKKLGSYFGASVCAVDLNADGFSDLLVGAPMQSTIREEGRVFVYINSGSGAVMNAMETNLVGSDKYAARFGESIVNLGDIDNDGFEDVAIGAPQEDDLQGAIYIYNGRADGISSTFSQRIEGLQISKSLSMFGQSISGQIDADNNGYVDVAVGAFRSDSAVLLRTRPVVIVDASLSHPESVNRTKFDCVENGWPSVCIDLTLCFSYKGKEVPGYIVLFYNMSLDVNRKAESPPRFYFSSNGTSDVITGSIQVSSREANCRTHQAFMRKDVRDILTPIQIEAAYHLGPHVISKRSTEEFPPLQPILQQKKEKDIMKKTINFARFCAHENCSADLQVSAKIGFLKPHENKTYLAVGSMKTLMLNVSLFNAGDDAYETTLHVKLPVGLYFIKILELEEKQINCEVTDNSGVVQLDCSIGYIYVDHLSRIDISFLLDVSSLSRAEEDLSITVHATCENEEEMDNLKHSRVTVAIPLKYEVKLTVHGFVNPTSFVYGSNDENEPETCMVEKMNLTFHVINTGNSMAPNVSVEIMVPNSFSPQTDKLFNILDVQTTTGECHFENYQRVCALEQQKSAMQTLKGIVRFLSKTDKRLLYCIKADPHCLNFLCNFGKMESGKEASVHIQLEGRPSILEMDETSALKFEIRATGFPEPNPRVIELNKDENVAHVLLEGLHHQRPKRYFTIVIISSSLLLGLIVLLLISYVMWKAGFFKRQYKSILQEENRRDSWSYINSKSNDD
T2 sequence (P05556 21-798, chain 2 of 2): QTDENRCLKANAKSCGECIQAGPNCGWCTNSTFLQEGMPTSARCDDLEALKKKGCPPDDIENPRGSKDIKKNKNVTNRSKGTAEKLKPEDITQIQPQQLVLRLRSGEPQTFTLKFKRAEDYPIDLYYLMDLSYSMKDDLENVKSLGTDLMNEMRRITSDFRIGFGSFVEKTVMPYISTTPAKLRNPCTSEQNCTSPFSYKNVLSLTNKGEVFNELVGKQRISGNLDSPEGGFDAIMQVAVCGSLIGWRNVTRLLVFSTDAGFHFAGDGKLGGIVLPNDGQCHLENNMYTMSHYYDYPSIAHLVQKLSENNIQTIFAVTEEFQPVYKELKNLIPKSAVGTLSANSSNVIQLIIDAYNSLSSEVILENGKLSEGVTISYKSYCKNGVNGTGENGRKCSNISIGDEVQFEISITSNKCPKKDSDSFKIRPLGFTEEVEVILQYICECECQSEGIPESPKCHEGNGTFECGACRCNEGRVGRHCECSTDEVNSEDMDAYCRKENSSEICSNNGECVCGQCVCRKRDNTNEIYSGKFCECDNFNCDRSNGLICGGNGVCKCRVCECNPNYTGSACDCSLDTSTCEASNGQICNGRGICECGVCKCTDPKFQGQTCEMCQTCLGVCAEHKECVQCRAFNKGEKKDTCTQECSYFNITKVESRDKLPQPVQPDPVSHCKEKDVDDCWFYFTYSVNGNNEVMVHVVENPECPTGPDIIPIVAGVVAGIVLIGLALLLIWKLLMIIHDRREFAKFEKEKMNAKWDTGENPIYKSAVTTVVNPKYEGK
The experiment in a line: cell adhesion of α4-K562 cells to coated sPLA2-IIA.

A further experiment has as its target T3, αvβ3 on β3-CHO cells (UniProt A0A9J7JSN3+P05106).
T3 construct: expressed in transfected cells; host or cells: CHO
T3 sequence (P05106 27-788): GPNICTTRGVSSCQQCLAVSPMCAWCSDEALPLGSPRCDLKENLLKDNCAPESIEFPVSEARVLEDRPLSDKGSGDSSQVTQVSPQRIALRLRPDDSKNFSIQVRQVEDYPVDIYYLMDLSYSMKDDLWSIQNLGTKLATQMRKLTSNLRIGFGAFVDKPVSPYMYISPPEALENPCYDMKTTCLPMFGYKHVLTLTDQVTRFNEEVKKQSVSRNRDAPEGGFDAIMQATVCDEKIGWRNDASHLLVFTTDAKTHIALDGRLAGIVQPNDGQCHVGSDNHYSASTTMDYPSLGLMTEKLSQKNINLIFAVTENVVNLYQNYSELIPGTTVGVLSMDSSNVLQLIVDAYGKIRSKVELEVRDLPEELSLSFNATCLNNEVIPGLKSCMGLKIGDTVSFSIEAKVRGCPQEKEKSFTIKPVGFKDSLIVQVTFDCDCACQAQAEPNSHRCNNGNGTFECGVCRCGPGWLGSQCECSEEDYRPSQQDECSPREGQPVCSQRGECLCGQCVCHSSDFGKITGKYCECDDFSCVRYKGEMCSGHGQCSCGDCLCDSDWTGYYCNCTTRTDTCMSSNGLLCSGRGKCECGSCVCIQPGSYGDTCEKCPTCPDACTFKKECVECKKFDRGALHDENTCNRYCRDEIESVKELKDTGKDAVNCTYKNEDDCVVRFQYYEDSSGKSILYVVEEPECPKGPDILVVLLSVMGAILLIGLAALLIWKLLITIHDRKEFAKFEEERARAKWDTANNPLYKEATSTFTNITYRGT
T3 sequence (A0A9J7JSN3 31-1043): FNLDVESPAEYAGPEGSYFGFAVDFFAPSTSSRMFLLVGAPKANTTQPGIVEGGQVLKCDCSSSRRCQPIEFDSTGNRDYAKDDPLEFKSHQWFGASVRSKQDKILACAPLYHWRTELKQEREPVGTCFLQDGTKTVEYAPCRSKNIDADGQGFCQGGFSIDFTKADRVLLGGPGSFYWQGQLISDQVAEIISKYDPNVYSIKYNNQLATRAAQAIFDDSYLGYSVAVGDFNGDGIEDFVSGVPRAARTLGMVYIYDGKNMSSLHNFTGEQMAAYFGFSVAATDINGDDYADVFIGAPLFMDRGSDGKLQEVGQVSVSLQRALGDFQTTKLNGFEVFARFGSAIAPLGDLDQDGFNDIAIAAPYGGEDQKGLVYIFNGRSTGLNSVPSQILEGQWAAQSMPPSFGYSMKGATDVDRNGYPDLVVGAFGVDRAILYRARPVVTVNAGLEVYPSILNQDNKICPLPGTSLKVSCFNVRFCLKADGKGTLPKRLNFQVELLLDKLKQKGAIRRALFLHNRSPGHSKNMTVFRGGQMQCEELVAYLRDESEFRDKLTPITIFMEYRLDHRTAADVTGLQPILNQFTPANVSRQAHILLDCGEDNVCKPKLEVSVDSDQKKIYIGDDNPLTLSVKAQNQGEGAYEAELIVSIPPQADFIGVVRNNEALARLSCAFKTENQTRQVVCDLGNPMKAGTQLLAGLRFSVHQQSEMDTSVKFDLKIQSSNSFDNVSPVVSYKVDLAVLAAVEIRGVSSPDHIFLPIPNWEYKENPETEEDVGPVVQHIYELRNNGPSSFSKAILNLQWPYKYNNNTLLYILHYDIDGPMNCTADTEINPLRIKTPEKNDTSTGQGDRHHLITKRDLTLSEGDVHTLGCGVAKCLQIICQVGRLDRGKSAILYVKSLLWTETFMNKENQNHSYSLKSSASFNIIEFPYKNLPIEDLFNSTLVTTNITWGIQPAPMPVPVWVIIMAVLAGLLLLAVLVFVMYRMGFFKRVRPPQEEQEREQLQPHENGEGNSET
Put plainly: Binding of FITC-labeled sPLA2-IIA to αvβ3 on the cell surface (flow cytometry). In kind it is cell-based, human. To be noted: 10 μg/ml, 10 mM Mg2+, room temperature, 30 min. The source says: FIG. 1. sPLA2-IIA binding to integrin αvβ3. a) Cell adhesion to sPLA2-IIA in an αvβ3- and proteoglycans-dependent manner. Wells of a 96-well microtiter plate were coated with sPLA2-IIA at indicated coating concentrations. Remaining protein-binding sites were blocked with BSA. CHO cells expressing recombinant αvβ3 (β3-CHO), mock-transfected CHO cells, proteoglycans-deficient CHO cell variant (pgs745), expressing recombinant αvβ3 (β3-745), and mock-transfected pgs745 cells (10^5 cells per well in 100 μl Tyrodes-HEPES with 1 mM MgCl2) were added to the wells. After incubating for 1 h at 37° C., unbound cells were removed by gentle rinsing and bound cells were quantified using endogenous phosphatase activity (Prater, C. A. et al., J. Cell Biol., 112:1031-1040 (1991)). Data is shown as means+/−SEM of triplicate experiments. b) Effect of anti-(33 mAb 7E3 on adhesion of β3-CHO cells to immobilized sPLA2-IIA. […] Bound FITC (FL1) and PE (FL2) were quantified in flow cytometry. […] Bound αvβ3 was detected using peroxidase-conjugated anti-6His antibody. Bound peroxidase activity was measured. […]
Binding of FITC-labeled sPLA2-IIA to integrins on the cell surface sPLA2-IIA was labeled with FITC using Fluorescein labeling kit (Pierce) according to the manufacturer's instructions. […] Bound FITC (FL1) and PE (FL2) were quantified in flow cytometry.

By Kd is commonly meant the free concentration of one partner at which half of the binding sites on the other are occupied at equilibrium, for simple one-to-one binding.

T1 sequence (P06756 31-992, chain 1 of 2, one chain of several): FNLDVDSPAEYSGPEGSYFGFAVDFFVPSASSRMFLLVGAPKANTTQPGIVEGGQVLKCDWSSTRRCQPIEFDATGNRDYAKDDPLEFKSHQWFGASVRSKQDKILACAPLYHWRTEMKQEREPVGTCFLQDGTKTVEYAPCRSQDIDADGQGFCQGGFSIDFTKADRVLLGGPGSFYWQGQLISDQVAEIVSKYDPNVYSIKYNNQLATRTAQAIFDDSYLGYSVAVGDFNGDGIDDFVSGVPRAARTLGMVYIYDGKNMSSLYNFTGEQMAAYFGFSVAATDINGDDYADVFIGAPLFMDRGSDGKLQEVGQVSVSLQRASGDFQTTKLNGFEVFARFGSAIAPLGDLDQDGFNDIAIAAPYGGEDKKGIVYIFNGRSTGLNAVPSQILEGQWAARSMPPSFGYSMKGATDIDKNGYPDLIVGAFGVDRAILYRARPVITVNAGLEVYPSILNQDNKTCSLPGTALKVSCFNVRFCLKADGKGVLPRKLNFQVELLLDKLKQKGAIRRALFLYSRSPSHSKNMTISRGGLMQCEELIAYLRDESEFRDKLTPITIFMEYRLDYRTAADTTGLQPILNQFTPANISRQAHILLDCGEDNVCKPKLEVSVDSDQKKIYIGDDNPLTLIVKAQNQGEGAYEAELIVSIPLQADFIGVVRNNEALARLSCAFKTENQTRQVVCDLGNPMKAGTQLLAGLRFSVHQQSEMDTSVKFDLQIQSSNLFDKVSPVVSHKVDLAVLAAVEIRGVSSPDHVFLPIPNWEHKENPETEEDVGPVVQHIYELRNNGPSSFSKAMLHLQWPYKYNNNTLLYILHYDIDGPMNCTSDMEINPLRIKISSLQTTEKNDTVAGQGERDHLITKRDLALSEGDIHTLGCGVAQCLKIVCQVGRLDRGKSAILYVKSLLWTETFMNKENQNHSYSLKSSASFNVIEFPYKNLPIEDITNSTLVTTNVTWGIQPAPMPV

B1: wt sPLA2-IIA (secretory phospholipase A2 group IIA) (enzyme)
chain: NLVNFHRMIKLTTGKEAALSYGFYGCHCGVGGRGSPKDATDRCCVTHDCCYKRLEKRGCGTKFLSYKFSNSGSRITCAKQDSCRSQLCECDKAAATCFARNKTTYNKKYQYYSNKHCRGSTPRC
modifications: FITC label in the flow cytometry assay only (sites not given) ; FITC label (sites not given) in the flow cytometry assay only; the other assays used unlabelled protein.
notes: the form is read from the printed primers; also called FITC-sPLA2-IIA; FITC-labeled sPLA2-IIA; not shown: N-terminal vector-encoded residues with the His tag from the PET28a/amp vector (insert in the Bam HI site)
B1: the dissociation constant Kd in experiment [1] is 211 nM. Besides, the binding result in experiment [2] is given as “binds”.

B2: FITC-sPLA2-IIA: sPLA2-IIA labeled with FITC using Fluorescein labeling kit (conjugate)
chain: NLVNFHRMIKLTTGKEAALSYGFYGCHCGVGGRGSPKDATDRCCVTHDCCYKRLEKRGCGTKFLSYKFSNSGSRITCAKQDSCRSQLCECDKAAATCFARNKTTYNKKYQYYSNKHCRGSTPRC
modifications: left off: small tags and cut ends
notes: sPLA2-IIA labeled with FITC using Fluorescein labeling kit
As to B2, the “binding to cells expressing high-level αvβ3 vs little αvβ3” value in the experiment with αvβ3 on β3-CHO cells is recorded as “much higher levels”.
